Measurements from PMC7810988, “Inositol pyrophosphates promote the interaction of SPX domains with the coiled-coil motif of PHR transcription factors to regulate plant phosphate homeostasis”.

B1: pAtSPX1 biotin (dsDNA)
DNA 1: CAGAGAAAAAAGGATATTCTAATTAGAAACCTTAAGAATATTCTTTTTAATCCC
DNA 2: GGGATTAAAAAGAATATTCTTAAGGTTTCTAATTAGAATATCCTTTTTTCTCTG
B2: IRD800-pAtSPX1 (dsDNA)
DNA 1: B1 DNA 1
DNA 2: B1 DNA 2

Tests used:
AtPHR1 MYB-CC Olig2 = AtPHR1 MYB-CC Olig2 (Arabidopsis thaliana, UniProt Q94CL7 222-358, L317N;L327N;I341N); assay: GCI; 4 C, 300 mM NaCl; GCI at 4 C: AtPHR1 in 20 mM HEPES pH 7.5, 300 mM NaCl; OsPHR2 in 20 mM HEPES pH 7.9, 200 mM NaCl. EMSA: LI-COR Odyssey kit buffer without optional components, 50 nM oligo, 30 min at room temperature, 5% TBE gel in 0.5x TBE; conditions: protein: recombinant; tags: His6 N-terminal, TEV-cleaved; label: 5'-biotin on strand 1; blunt
Sequence of AtPHR1 MYB-CC Olig2 (Q94CL7 222-358 L317N/L327N/I341N): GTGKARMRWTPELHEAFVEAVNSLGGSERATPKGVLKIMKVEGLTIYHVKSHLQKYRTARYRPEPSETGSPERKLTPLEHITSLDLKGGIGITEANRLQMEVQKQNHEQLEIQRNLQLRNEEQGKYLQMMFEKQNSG

AtPHR1 MYB-CC Olig1 = AtPHR1 MYB-CC Olig1 (Arabidopsis thaliana, UniProt Q94CL7 222-358, L319N;I333N;L337N); assay: EMSA; indistinguishable from wild type; GCI at 4 C: AtPHR1 in 20 mM HEPES pH 7.5, 300 mM NaCl; OsPHR2 in 20 mM HEPES pH 7.9, 200 mM NaCl. EMSA: LI-COR Odyssey kit buffer without optional components, 50 nM oligo, 30 min at room temperature, 5% TBE gel in 0.5x TBE; conditions: protein: recombinant; tags: His6 N-terminal, TEV-cleaved; label: 5'-IRD800 on both strands; blunt
Sequence of AtPHR1 MYB-CC Olig1 (Q94CL7 222-358 L319N/I333N/L337N): as the sequence (Q94CL7 222-358 L317N/L327N/I341N) above, with N96L, L98N, N106L, I112N, L116N, N120I counted along it

Row | Binder | binding signal (AtPHR1 MYB-CC Olig2) | binding result (AtPHR1 MYB-CC Olig1)
1 | B1 | ~20 fold reduced affinity vs wild type | 
2 | B2 |  | binds
